One data set concerns the target T1, Antp-PCP.
T1 chain: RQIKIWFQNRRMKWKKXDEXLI

In another data set the target is T2, R9-PCP.
T2 chain: RRRRRRRRRXDEXLI

The target in a further data set is T3, cFΦR4-PCP (not fully specified).
T3 chain: FXRRRRQXDEXLI

Another data set concerns the target T4, peptide 6 (Table 10).
T4 chain: RRRRXFDXXD

The target in a further data set is T5, peptide 7 (Table 10).
T5 chain: RRRRRRRRRDXXDX

Experimental findings from patent US20200385427 are described below.

B1: VHR (protein)
chain: MSGSFELSVQDLNDLLSDGSGCYSLPSQPCNEVTPRIYVGNASVAQDIPKLQKLGITHVLNAAEGRSFMHVNTNANFYKDSGITYLGIKANDTQEFNLSAYFERAADFIDQALAQKNGRVLVHCREGYSRSPTLVIAYLMMRQKMDVKSALSIVRQNREIGPNDGFLAQLCQLNDRLAKEGKLKP
B1: the figures for the kcat/KM (dephosphorylation of pCAP peptide) with Antp-PCP, in the data set with R9-PCP and with cFΦR4-PCP were 2030 M⁻¹ s⁻¹, 6240 M⁻¹ s⁻¹ and 2460 M⁻¹ s⁻¹, respectively.

B2: SHP2 (protein)
chain: AETTDKVKQGFWEEFETLQQQECKLLYSRKEGQRQENKNKNRYKNILPFDHTRVVLHDGDPNEPVSDYINANIIMPEFETKCNNSKPKKSYIATQGCLQNTVNDFWRMVFQENSRVIVMTTKEVERGKSKCVKYWPDEYALKEYGVMRVRNVKESAAHDYTLRELKLSKVGQGNTERTVWQYHFRTWPDHGVPSDPGGVLDFLEEVHHKQESIMDAGPVVVHCSAGIGRTGTFIVIDILIDIIREKGVDCDIDVPKTIQMVRSQRSGMVQTEAQYRFIYMAVQHYIETLQRRI
For the protein B2, the kcat/KM (dephosphorylation of pCAP peptide) amounted to 2210 M⁻¹ s⁻¹ in the data set with Antp-PCP, 248 M⁻¹ s⁻¹ in the data set with R9-PCP and 7400 M⁻¹ s⁻¹ with cFΦR4-PCP.

B3: PTPRC (protein)
chain: YKIYDLHKKRSCNLDEQQELVERDDEKQLMNVEPIHADILLETYKRKIADEGRLFLAEFQSIPRVFSKFPIKEARKPFNQNKNRYVDILPYDYNRVELSEINGDAGSNYINASYIDGFKEPRKYIAAQGPRDETVDDFWRMIWEQKATVIVMVTRCEEGNRNKCAEYWPSMEEGTRAFGDVVVKINQHKRCPDYIIQKLNIVNKKEKATGREVTHIQFTSWPDHGVPEDPHLLLKLRRRVNAFSNFFSGPIVVHCSAGVGRTGTYIGIDAMLEGLEAENKVDVYGYVVKLRRQRCLMVQVEAQYILIHQALVEYNQFGETEVNLSELHPYLHNMKKRDPPSEPSPLEAEFQRLPSYRSWRTQHIGNQEENKSKNRNSNVIPYDYNRVPLKHELEMSKESEHDSDESSDDDSDSEEPSKYINASFIMSYWKPEVMIAAQGPLKETIGDFWQMIFQRKVKVIVMLTELKHGDQEICAQYWGEGKQTYGDIEVDLKDTDKSSTYTLRVFELRHSKRKDSRTVYQYQYTNWSVEQLPAEPKELISMIQVVKQKLPQKNSSEGNKHHKSTPLLIHCRDGSQQTGIFCALLNLLESAETEEVVDIFQVVKALRKARPGMVSTFEQYQFLYDVIASTYPAQNGQVKKNNHQEDKIEFDNEVDKVKQDANCVNPLGAPEKLPEAKEQAEGSEPTSGTEGPEHSVNGPASPALNQGS
Regarding B3, the kcat/KM (dephosphorylation of pCAP peptide) with Antp-PCP was found to be 22300 M⁻¹ s⁻¹; in the data set with R9-PCP it was 2940 M⁻¹ s⁻¹; in the data set with cFΦR4-PCP it was 35100 M⁻¹ s⁻¹.

B4: TCPTP (protein)
chain: MPTTIEREFEELDTQRRWQPLYLEIRNESHDYPHRVAKFPENRNRNRYRDVSPYDHSRVKLQNAENDYINASLVDIEEAQRSYILTQGPLPNTCCHFWLMVWQQKTKAVVMLNRIVEKESVKCAQYWPTDDQEMLFKETGFSVKLLSEDVKSYYTVHLLQLENINSGETRTISHFHYTTWPDFGVPESPASFLNFLFKVRESGSLNPDHGPAVIHCSAGIGRSGTFSLVDTCLVLMEKGDDINIKQVLLNMRKYRMGLIQTPDQLRFSYMAIIEGAKCIKGDSSIQKRWKELSKEDLSPAFDHSPNKIMTEKYN
Regarding B4, the kcat/KM (dephosphorylation of pCAP peptide) was 970 M⁻¹ s⁻¹ with Antp-PCP, 457 M⁻¹ s⁻¹ with R9-PCP and 2780 M⁻¹ s⁻¹ in the data set with cFΦR4-PCP.

B5: PTP1B (protein)
chain: MEMEKEFEQIDKSGSWAAIYQDIRHEASDFPCRVAKLPKNKNRNRYRDVSPFDHSRIKLHQEDNDYINASLIKMEEAQRSYILTQGPLPNTCGHFWEMVWEQKSRGVVMLNRVMEKGSLKCAQYWPQKEEKEMIFEDTNLKLTLISEDIKSYYTVRQLELENLTTQETREILHFHYTTWPDFGVPESPASFLNFLFKVRESGSLSPEHGPVVVHCSAGIGRSGTFCLADTCLLLMDKRKDPSSVDIKKVLLEMRKFRMGLIQTADQLRFSYLAVIEGAKFIMGDSSVQDQWKELSHEDLEPPPEHIPPPPRPPKRILEPHN
Consider B5, for which the kcat/KM (dephosphorylation of pCAP peptide) with Antp-PCP amounted to 17400 M⁻¹ s⁻¹; with R9-PCP, 14700 M⁻¹ s⁻¹; with cFΦR4-PCP it was 37100 M⁻¹ s⁻¹.

B6: Caspase-3, Human, recombinant protein (protein)
chain: SGISLDNSYKMDYPEMGLCIIINNKNFHKSTGMTSRSGTDVDAANLRETFRNLKYEVRNKNDLTREEIVELMRDVSKEDHSKRSSFVCVLLSHGEEGIIFGTNGPVDLKKITNFFRGDRCRSLTGKPKLFIIQACRGTELDCGIETDSGVDDDMACHKIPVEADFLYAYSTAPGYYSWRNSKDGSWFIQSLCAMLKQYADKLEFMHILTRVNRKVATEFESFSFDATFHAKKQIPCIVSMLTKELYFYH
For the protein B6, the “decrease of substrate activity relative to peptide 3” value in the data set with peptide 6 (Table 10) is “decreased its activity by 53% and 72%, respectively, relative to peptide 3”; with peptide 7 (Table 10), “decreased its activity by 53% and 72%, respectively, relative to peptide 3”.
